Assay results reported in patent US11225644B2, “Cell culture method, cell aggregates, cell aggregation control agent, and medium” (THE UNIVERSITY OF TOKYO, priority 2015, dated 2022).

Assays:
Format in all cases: cell-based, human
hiPS cells (TkDN4-M) [1] = test: Observation of cell aggregates after 1 day of rotation culture (Example 2); conditions: 10 μg/ml, FIG. 5; for uniformity of aggregate diameters compared to Comparative Example 2-1: mTeSR1, rotation culture 90 rpm for 1 day
Protocol: To a 12-well plate subjected to low-cell-adhesion treatment, 1 mL of mTeSR®1 was added, and hiPS cells (TkDN4-M, Stem Cell Bank, The University of Tokyo) ([…] cells/ml) provided in advance and, as a substance that inhibits a cell adhesion molecule(s) of the hiPS cells, recombinant E-cadherin (hRP-0339, manufactured by LD Biopharma) (10 μg/ml) were added at the same time, followed by performing rotation culture at a speed of 90 rpm for 1 day.
Aggregates were obtained in the same manner as in Example 2-1 except that a neutralizing antibody against E-cadherin (E-cadherin antibody MAB3199Z, manufactured by Millipore) ([…]) was used as the substance that inhibits a cell adhesion molecule(s) of the hiPS cells in Example 2-2.
Aggregates were obtained in the same manner as in Example 2-1 except that E-cadherin-Fc (10 μg/ml) was used as the substance that inhibits a cell adhesion molecule(s) of the hiPS cells in Example 2-3.
Morphology of cell aggregates in Examples 2-1 to 2-3 and Comparative Example 2-1 was observed using a phase-contrast microscope (product name. DM IRB; manufactured by LEICA).

hiPS cells (TkDN4-M) [2] = test: Measurement of number of cells, Essential 8 culture (Example 3); conditions: Examples 3-1 and 3-2 (50, 100 μg/ml) vs Comparative Example 3-1, Essential 8, after 5 days, FIG. 9
Protocol: (§1) After completion of the culture, the cells were dispersed into single cells using TrypLE® select, and the number of live cells was counted using trypan blue (manufactured by Life Technologies) and an eosinophil counter (manufactured by Tatai).
(§2) To a 12-well plate subjected to low-cell-adhesion treatment, 1 mL of Essential 8® was added, and hiPS cells (TkDN4-M, Stem Cell Bank, The University of Tokyo) (2×10^5 cells/ml) provided in advance and, as a substance that inhibits a cell adhesion molecule(s) of the hiPS cells, E-cadherin-Fc (50 μg/ml) were added at the same time, followed by performing rotation culture at a speed of 100 rpm for 5 days. On Day 2 of the culture and thereafter (from 48 hours after the beginning of the culture), medium replacement was carried out every day with a medium to which E-cadherin-Fc was not added.

hiPS cells (TkDN4-M) [3] = test: Measurement of glucose consumption, Essential 8 culture (Example 3); conditions: Examples 3-1 and 3-2 (50, 100 μg/ml) vs Comparative Example 3-1, Essential 8, FIG. 8
Protocol: (§3) During the whole culture period, 300 μL of the culture liquid was collected upon replacement of the medium, and the glucose concentration was analyzed using an enzyme-electrode type bioanalyzer (YS12950) to calculate changes in the glucose consumption.
as §2

hiPS cells (TkDN4-M) [4] = test: Diameters of cell aggregates in rotation suspension culture in mTeSR1 (Example 1)
Protocol: As pluripotent stem cells, hiPS cells (TkDN4-M, Stem Cell Bank, The University of Tokyo) were used. These cells were plated on the above culture plate at a density of 100,000 to 400,000 cells/well, and cultured for four days. The culture was carried out using, as a culture medium, 2 mL/well of mTeSR®1 (manufactured by StemCell Technologies). During the culture, medium replacement was carried out every day except for the day after the plating.
For detachment and collection of cells, TrypLE® select (manufactured by Life Technologies), which is a trypsin-like enzyme, was used. After removal of the culture liquid, TrypLE® select was added to the wells at 1 mL/well, and the plate was incubated at 37° C. for 2 to 5 minutes. Thereafter, TrypLE® select was removed, and mTeSR®1 supplemented with 10 μM Y-27632, which is a ROCK inhibitor, was added to the wells at 2 mL/well, followed by pipetting using a 1000-μL micropipette to detach the cells. The collected cell suspension was passed through a 40-μm cell strainer (BD) to collect the cells as single cells and/or microaggregates, to thereby obtain cells to be applied to suspension culture.
In the following Examples and Comparative Examples, morphology and sizes of cell aggregates during the culture period were observed and measured using a phase-contrast microscope (product name, DM IRB; manufactured by LEICA). […]

hiPS cells (TkDN4-M) [5] = test: Measurement of glucose consumption, mTeSR1 culture (Example 1); conditions: Day 5 of the culture
Protocol: (§4) […] The sizes of the aggregates 48 hours after the E-cadherin-Fc treatment were within the range of 300 to 700 μm. Subsequently, medium replacement was carried out, and culture was carried out for three days under the same conditions as described above except that E-cadherin-Fc was not added, to obtain aggregates. The sizes of the aggregates were within the range of 500 to 1000 μm.
as §3

hiPS cells (TkDN4-M) [6] = test: Observation of cell aggregates in rotation suspension culture in Essential 8 (Example 3); conditions: Day 5 of the culture, Essential 8, E-cadherin-Fc 50 or 100 μg/ml for first 48 hours, 100 rpm
Protocol: as §2
Aggregates were obtained in the same manner as in […] except that the concentration of E-cadherin-Fc in Example 3-1 was 100 μg/ml.
Morphology of cell aggregates in Examples 3-1 and 3-2, and Comparative Example 3-1 on Day 2 and Day 5 of the culture was observed using a phase-contrast microscope (product name, DM IRB; manufactured by LEICA). From the results shown in FIGS. 6 and 7, it can be seen that the size of the aggregates can be controlled also in cases where Essential 8® is used as the medium. On Day 5 of the culture, in the cases where E-cadherin-Fc was added, the size of the aggregates was larger than that on Day 2 of the culture, and the diameter of the aggregates was controlled at about 500 μm.

hiPS cells (TkDN4-M) [7] = test: Measurement of live cell number after culture, mTeSR1 (Example 1); conditions: Day 5 of the culture
Protocol: as §4, §1

B1: recombinant E-cadherin: recombinant E-cadherin (hRP-0339, manufactured by LD Biopharma) (protein, UniProt P12830 155-882, looked up)
Cadherin-1: DWVIPPISCPENEKGPFPKNLVQIKSNKDKEGKVFYSITGQGADTPPVGVFIIERETGWLKVTEPLDRERIATYTLFSHAVSSNGNAVEDPMEILITVTDQNDNKPEFTQEVFKGSVMEGALPGTSVMEVTATDADDDVNTYNAAIAYTILSQDPELPDKNMFTINRNTGVISVVTTGLDRESFPTYTLVVQAADLQGEGLSTTATAVITVTDTNDNPPIFNPTTYKGQVPENEANVVITTLKVTDADAPNTPAWEAVYTILNDDGGQFVVTTNPVNNDGILKTAKGLDFEAKQQYILHVAVTNVVPFEVSLTTSTATVTVDVLDVNEAPIFVPPEKRVEVSEDFGVGQEITSYTAQEPDTFMEQKITYRIWRDTANWLEINPDTGAISTRAELDREDFEHVKNSTYTALIIATDNGSPVATGTGTLLLILSDVNDNAPIPEPRTIFFCERNPKPQVINIIDADLPPNTSPFTAELTHGASANWTIQYNDPTQESIILKPKMALEVGDYKINLKLMDNQNKDQVTTLEVSVCDCEGAAGVCRKAQPVEAGLQIPAILGILGGILALLILILLLLLFLRRRAVVKEPLLPPEDDTRDNVYYYDEEGGGEEDQDFDLSQLHRGLDARPEVTRNDVAPTLMSVPRYLPRPANPDEIGNFIDENLKAADTDPTAPPYDSLLVFDYEGSGSEAASLSSLNSSESDKDQDYDYLNEWGNRFKKLADMYGGGEDD
uniformity of aggregate diameters compared to Comparative Example 2-1 (hiPS cells (TkDN4-M) [1]): more uniformly controlled diameters

B2: E-cadherin-Fc: fusion protein of mouse E-cadherin extracellular domain and mutated IgG1-Fc domain (T252M/T254S) (protein)
chain: DWVIPPISCPENEKGEFPKNLVQIKSNRDKETKVFYSITGQGADKPPVGVFIIERETGWLKVTQPLDREAIAKYILYSHAVSSNGEAVEDPMEIVITVTDQNDNRPEFTQPVFEGFVAEGAVPGTSVMKVSATDADDDVNTYNAAIAYTIVSQDPELPHKNMFTVNRDTGVISVLTSGLDRESYPTYTLVVQAADLQGEGLSTTAKAVITVKDINDNAPVFNPSTYQGQVPENEVNARIATLKVTDDDAPNTPAWKAVYTVVNDPDQQFVVVTDPTTNDGILKTAKGLDFEAKQQYILHVRVENEEPFEGSLVPSTATVTVDVVDVNEAPIFMPAERRVEVPEDFGVGQEITSYTAREPDTFMDQKITYRIWRDTANWLEINPETGAIFTRAEMDREDAEHVKNSTYVALIIATDDGSPIATGTGTLLLVLLDVNDNAPIPEPRNMQFCQRNPQPHIITILDPDLPPNTSPFTAELTHGASVNWTIEYNDAAQESLILQPRKDLEIGEYKIHLKLADNQNKDQVTTLDVHVCDCEGTVNNCMKAGIVAAGLQV
modifications: left off: a dimerising Fc or GST
number of cells (hiPS cells (TkDN4-M) [2]): excellent effect | uniformity of aggregate diameters compared to Comparative Example 2-1 (hiPS cells (TkDN4-M) [1]): more uniformly controlled diameters | aggregates compared to recombinant E-cadherin or neutralizing antibody against E-cadherin (hiPS cells (TkDN4-M) [1]; rotation culture for 1 day): larger aggregates having more uniform shapes | glucose consumption (hiPS cells (TkDN4-M) [3]): excellent effect | morphology of cell aggregates compared to Comparative Example 1-1 (hiPS cells (TkDN4-M) [4]; 5, 10, 20, 50 and 100 μg/ml, Day 2 of the culture, FIG. 2): better-controlled sizes | suppression of excessive aggregation and formation of uniform aggregates (hiPS cells (TkDN4-M) [4]; concentration within 10 to 50 μg/ml, Day 2, simple rotation culture): effective | glucose consumption compared to Comparative Example 1-1 (hiPS cells (TkDN4-M) [5]; Example 1-1, 5 μg/ml): about twice | glucose consumption compared to Comparative Example 1-1 (hiPS cells (TkDN4-M) [5]; Example 1-2, 10 μg/ml): 2 times | glucose consumption compared to Comparative Example 1-1 (hiPS cells (TkDN4-M) [5]; Example 1-3, 20 μg/ml): 2.5 times | glucose consumption compared to Comparative Example 1-1 (hiPS cells (TkDN4-M) [5]; Example 1-4, 50 μg/ml): 2.5 times | glucose consumption compared to Comparative Example 1-1 (hiPS cells (TkDN4-M) [5]; Example 1-5, 100 μg/ml): 2 times | diameter of the aggregates (hiPS cells (TkDN4-M) [6]): about 500 μm | number of cells compared to Comparative Example 1-1 (hiPS cells (TkDN4-M) [7]; Example 1-2, 10 μg/ml): about 1.8 times | number of cells compared to Comparative Example 1-1 (hiPS cells (TkDN4-M) [7]; Example 1-3, 20 μg/ml): about 2.5 times | number of cells compared to Comparative Example 1-1 (hiPS cells (TkDN4-M) [7]; Example 1-4, 50 μg/ml): about 3 times | number of cells compared to Comparative Example 1-1 (hiPS cells (TkDN4-M) [7]; Example 1-5, 100 μg/ml): about 2.3 times
